Measured values taken from the supplement of paper PMC12667976.

B1: library; numbered along this chain (parent)
chain: MATDAALRRLLRLHRTEIAVAVDSAFPLLHALADHDVVPEDKFQETLHLKEKEGCPQAFHALLSWLLTQDSTAILDFWRVLFKDYNLERYGRLQPILDSFPKDVDLSQPRKGRKPPAVPKALVPPPRLPTKRKASEEARAAAPAALTPRGTASPGSQLKAKPPKKPESSAEQQRLPLGNGIQTMSASVQRAVAMSSGDVPGARGAVEGILIQQVFESGGSKKCIQVGGEFYTPSKFEDSGSGKNKARSSSGPKPLVRAKGAQGAAPGGGEARLGQQGSVPAPLALPSDPQLHQKNEDECAVCRDGGELICCDGCPRAFHLACLSPPLREIPSGTWRCSSCLQATVQEVQPRAEEPRPQEPPVETPLPPGLRSAGEEVRGPPGEPLAGMDTTLVYKHLPAPPSAAPLPGLDSSALHPLLCVGPEGQQNLAPGARCGVCGDGTDVLRCTHCAAAFHWRCHFPAGTSRPGTGLRCRSCSGDVTPAPVEGVLAPSPARLAPGPAKDDTASHEPALHRDDLESLLSEHTFDGILQWAIQSMARPAAPFPS

Variants of: B1
Assay: AIRE transcriptional activation functional score (insulin promoter-GFP; nonsense median 0, synonymous median 1) (normalised score); higher = higher AIRE activity (more reporter activation)
Conditions: with insulin promoter-GFP reporter in HEK293
Description: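 Deep mutational scan of full-length human AIRE (codon-optimized cDNA, DT-POPCode NNN libraries over three regions) integrated at a Bxb1 landing pad in HEK293 cells carrying an insulin core promoter-GFP reporter at a Flp-In site. Cells were sorted for the top 10% GFP about 14 days after transfection. Variant frequency log-ratios (select vs non-select, TileSeq) were rescaled so that the nonsense median is 0 and the synonymous median is 1, then averaged over biological replicates.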

AIRE transcriptional activation functional score of substitutions, site by site:
P124: C 1.15, D 0.6, E 0.934, F 1.35, G 1.27, H 0.958, I 1.71, K 0.627, L 1.09, M 1.48, N 0.804, Q 0.964, R 0.769, S 1.08, T 0.68, V 1.65, W 1.5, Y 1.81
P125: A 1.25, C 0.918, D 0.901, E 0.892, F 0.97, G 1.08, H 1.27, I 1.36, K 0.907, L 1.24, M 1.18, N 0.92, Q 0.768, R 0.79, S 1.04, T 1.42, V 1.19, W 1.36, Y 0.77
P126: A 0.621, C 0.317, D 0.773, E 0.762, F 0.304, G 1.42, H 0.139, I 0.105, K 1.08, L 0.122, M 0.141, N 0.042, Q -0.177, R -0.0135, S 0.0633, T 0.134, V 0.0693, W 0.0843, Y -0.0102
R127: A 0.314, C 0.833, D 0.358, E 0.317, F 0.897, G 0.421, H 0.326, I 0.611, K 0.758, L 0.607, M 1.1, N 1.09, P 0.804, Q 0.887, S 0.869, T 0.335, V 0.801, W 0.912, Y 0.503
L128: A 1.19, C 1.19, D -0.0224, E 0.0699, F 1.43, G 1.51, H 0.857, I 1.19, K -0.124, M 1.32, N 1.02, P 1.17, Q 0.496, R 0.525, S 0.817, T 1.62, V 1.12, W 1.39, Y 1.41
P129: A 0.717, C 0.895, D 0.0133, E -0.0453, F 0.395, G 0.951, H -0.142, I 0.253, K 1.07, L 0.107, M 0.564, N 0.901, Q 0.651, R 0.451, S 0.685, T 1.17, V 0.215, W -0.183, Y 0.0475
T130: A 1.78, C 1.38, D 0.225, E 0.325, F 1.71, G 1.13, H 0.621, I 1.05, K 0.531, L 1.13, N 0.915, P 1.36, R 0.316, S 1.36, V 0.747, W 1.39, Y 1.11
K131: A 0.284, C -0.0234, D -0.154, E 0.0987, F 0.0637, G -0.226, H 0.185, I -0.103, L -0.159, M 0.154, N 0.0453, P 0.0359, Q -0.125, R -0.372, S 0.0229, T -0.293, V 0.174, W -0.218, Y 0.0539
R132: A 0.179, C -0.0301, D 0.252, E 0.0732, F -0.0252, G 0.129, H 0.458, I -0.0777, K 0.0662, L -0.017, M 0.275, N -0.47, P -0.258, Q 0.308, S 0.00923, T -0.125, V -0.3, W 0.538, Y 0.288
K133: A -0.0211, C 0.0795, D 0.12, E 0.0731, F -0.0481, G 0.153, H 0.287, I -0.178, L -0.0606, M -0.0607, N -0.0115, P 0.469, Q -0.167, R 1.43, S 0.436, T 0.351, V -0.175, W -0.155, Y -0.0322
A134: C 1.35, D 0.263, E -0.378, F 1.29, G -0.0179, H 0.548, I 1.43, K -3.51, L 1.11, M -0.832, N 1.63, P -0.0505, Q 1.1, R 0.538, S 1.06, T -0.16, V 1.34, W 0.124, Y 0.952
S135: A 2.31, C 0.747, D 1.56, E 1.38, F 1.13, G -0.37, H 1.48, I 1.2, K 1.43, L 1.04, M -0.155, N 0.753, P 0.181, Q 1.13, R 0.761, T 2.07, V 0.924, W 1.79, Y 0.884
E136: A 1.16, C 1.22, D 0.541, F 0.605, G 0.816, H 1.15, I 0.792, K -0.163, L 0.669, M 0.441, N 0.529, P 1.91, Q 1.45, R -0.203, S 0.919, T 0.767, V 0.704, W 1, Y 1.32
E137: A 1.36, C 0.524, D 1.23, F 1.36, G 0.593, H 0.409, I 0.97, K 0.00389, L 0.822, M 2.33, N 0.174, P 1.18, Q -0.415, R 0.377, S 0.539, T 0.166, V 0.84, W 1.59, Y 1.71
A138: C 1.51, D 0.727, E 1.11, F 1.13, G 0.96, H 0.328, I 1.06, K 0.889, L 1.27, M 2.84, N 0.5, P 0.857, Q 0.334, R 1.19, S 0.847, T 0.99, V 1.1, W 1.66, Y 1.36
R139: A -0.0134, C 0.377, D 0.568, E 0.912, F 1.51, G 1.2, H 0.679, I 1, K 1.37, L 1.19, M 1.04, N 0.522, P 0.0776, Q 1.35, S 0.893, T 0.641, V 0.965, W 1.54, Y 1.25
A140: C 0.626, D 1.07, E 1.36, F 1.71, G 1.12, H 1.37, I 1.46, K 0.768, L 1.13, M 0.337, N 0.714, P 1.56, Q 0.908, R 1.14, S 1.02, T 1.12, V 1.35, W 1.46, Y 1.38
A141: C 0.959, D 1.25, E 1.49, F 1.77, G 1.28, H 1.12, I 0.758, K 1.19, L 1.36, M 0.533, N 0.447, P 0.97, Q 1.24, R 1.02
